Laboratory results as given in patent publication US20130064834A1 (published 2013).

What was measured:
Human PCSK9-myc-myc-his [1] = target: T1, Human PCSK9-myc-myc-his (human, UniProt Q8NBP7 31-692); assay: ELISA, mAb coated, 1.2 nM antigen;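 further: antigen allowed to bind for 1 h at room temperature, then captured protein revealed with an HRP-linked polyclonal anti-myc antibody and read as optical density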
T1 construct: also called hPCSK9-mmh; hPCSK9
From the text: (§1) After 1 hr binding at RT, the plate was washed and bound test protein detected using HRP-conjugated anti-myc polyclonal antibody (++=OD>1.0; +=OD 0.4-1.0; −=OD<0.4).

[2] = target: T2, Chimeric protein #1 (mPro-hCat-mC-term-mmh) (mouse; human, UniProt Q80W65 35-694); assay: ELISA, mAb coated, 1.2 nM antigen;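 further: antigen allowed to bind for 1 h at room temperature, then captured protein revealed with an HRP-linked polyclonal anti-myc antibody and read as optical density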
T2 chain: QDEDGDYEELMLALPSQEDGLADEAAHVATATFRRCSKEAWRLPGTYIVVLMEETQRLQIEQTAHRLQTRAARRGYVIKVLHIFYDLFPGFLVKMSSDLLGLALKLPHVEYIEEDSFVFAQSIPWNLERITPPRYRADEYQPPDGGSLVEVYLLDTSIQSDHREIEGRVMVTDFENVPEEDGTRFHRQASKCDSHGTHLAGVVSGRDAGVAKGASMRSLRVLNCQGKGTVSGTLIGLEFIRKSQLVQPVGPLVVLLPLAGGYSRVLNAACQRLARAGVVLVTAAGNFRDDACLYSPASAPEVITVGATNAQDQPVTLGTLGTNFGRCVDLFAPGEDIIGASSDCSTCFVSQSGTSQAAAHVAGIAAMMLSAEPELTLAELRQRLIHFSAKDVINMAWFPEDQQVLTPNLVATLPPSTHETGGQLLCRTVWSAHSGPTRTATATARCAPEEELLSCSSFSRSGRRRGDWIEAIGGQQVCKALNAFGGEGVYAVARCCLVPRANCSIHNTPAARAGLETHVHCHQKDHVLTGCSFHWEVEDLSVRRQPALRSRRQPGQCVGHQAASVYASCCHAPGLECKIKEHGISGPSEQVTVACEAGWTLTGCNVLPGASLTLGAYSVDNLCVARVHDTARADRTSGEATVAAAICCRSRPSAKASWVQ
From the text: as §1

[3] = target: Chimeric protein #2 (hPro-mCat-mC-term-mmh) (human; mouse, UniProt Q80W65 19-694); assay: ELISA, mAb coated, 1.2 nM antigen;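 further: antigen allowed to bind for 1 h at room temperature, then captured protein revealed with an HRP-linked polyclonal anti-myc antibody and read as optical density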
From the text: as §1

Human PCSK9-myc-myc-his [4] = target: T1, Human PCSK9-myc-myc-his; assay: SPR, mAb captured on anti-hFc, 37C
hPCSK9(D374Y)-mmh = target: T3, hPCSK9(D374Y)-mmh (human, UniProt Q8NBP7 31-692); assay: SPR, mAb captured on anti-hFc, 37C
T3 construct: also called hPCSK(D374Y)-mmh

[5] = target: T4, tagged rhesus monkey (Macaca mulata) PCSK9 (rhesus monkey (Macaca mulata), UniProt A8T666 31-692); assay: SPR, mAb captured on anti-hFc, 37C
T4 construct: also called mmPCSK9-mmh; mmPCSK9
T4 sequence (A8T666 31-692 limits assumed): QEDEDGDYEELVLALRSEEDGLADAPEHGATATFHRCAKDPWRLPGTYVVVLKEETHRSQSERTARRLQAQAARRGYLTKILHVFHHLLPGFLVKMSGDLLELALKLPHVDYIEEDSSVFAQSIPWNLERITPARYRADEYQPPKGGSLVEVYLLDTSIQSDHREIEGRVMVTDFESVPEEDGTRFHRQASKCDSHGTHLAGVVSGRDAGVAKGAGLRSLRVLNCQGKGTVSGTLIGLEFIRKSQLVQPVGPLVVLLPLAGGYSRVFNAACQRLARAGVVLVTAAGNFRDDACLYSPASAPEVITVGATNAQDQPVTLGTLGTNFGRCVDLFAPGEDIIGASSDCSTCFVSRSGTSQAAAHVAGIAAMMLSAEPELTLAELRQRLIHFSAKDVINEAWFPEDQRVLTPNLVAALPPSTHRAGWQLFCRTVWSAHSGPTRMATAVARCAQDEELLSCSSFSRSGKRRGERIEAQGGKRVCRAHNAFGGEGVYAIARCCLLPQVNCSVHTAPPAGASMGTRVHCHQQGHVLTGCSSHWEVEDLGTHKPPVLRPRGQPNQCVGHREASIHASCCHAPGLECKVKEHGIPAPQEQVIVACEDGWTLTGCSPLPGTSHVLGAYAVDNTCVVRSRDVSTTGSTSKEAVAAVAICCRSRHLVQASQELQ

[6] = target: T5, cynomolgus monkey (Macaca fascicularis) PCSK9, myc-myc-his tagged (cynomolgus monkey (Macaca fascicularis), UniProt A8T662 31-692 (Macaca nemestrina entry), limits assumed); assay: SPR, mAb captured on anti-hFc, 37C
T5 construct: also called mfPCSK9-mmh; mfPCSK9
T5 sequence (A8T662 31-692 limits assumed): as the sequence (A8T666 31-692 limits assumed) above, with P607A, K639E counted along it

[7] = target: T6, mouse PCSK9, myc-myc-his tagged (mouse, UniProt Q80W65 35-694); assay: SPR, mAb captured on anti-hFc, 37C
T6 construct: also called mPCSK9-mmh; mPCSK9

[8] = target: T7, rat (Rattus norvegicus) PCSK9, myc-myc-his tagged (rat (Rattus norvegicus), UniProt P59996 31-691); assay: SPR, mAb captured on anti-hFc, 37C
T7 construct: also called rPCSK9-mmh; rPCSK9
T7 sequence (P59996 31-691 limits assumed): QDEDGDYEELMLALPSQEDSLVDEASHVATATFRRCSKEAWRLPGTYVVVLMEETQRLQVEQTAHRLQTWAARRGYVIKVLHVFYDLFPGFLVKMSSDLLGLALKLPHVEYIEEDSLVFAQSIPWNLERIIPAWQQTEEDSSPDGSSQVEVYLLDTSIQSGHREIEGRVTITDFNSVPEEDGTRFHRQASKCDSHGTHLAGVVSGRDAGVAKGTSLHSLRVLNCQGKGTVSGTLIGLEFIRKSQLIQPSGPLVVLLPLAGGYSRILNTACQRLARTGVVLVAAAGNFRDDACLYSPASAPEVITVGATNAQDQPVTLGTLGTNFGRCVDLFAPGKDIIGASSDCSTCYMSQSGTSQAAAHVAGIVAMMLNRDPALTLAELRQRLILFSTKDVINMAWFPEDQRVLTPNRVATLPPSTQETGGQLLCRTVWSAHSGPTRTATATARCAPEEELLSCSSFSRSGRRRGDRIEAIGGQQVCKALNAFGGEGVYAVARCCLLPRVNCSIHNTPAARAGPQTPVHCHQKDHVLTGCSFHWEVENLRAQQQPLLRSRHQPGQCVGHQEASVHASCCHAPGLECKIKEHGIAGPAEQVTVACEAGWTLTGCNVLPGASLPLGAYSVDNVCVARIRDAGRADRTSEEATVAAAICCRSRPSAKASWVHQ

[9] = target: T6, mouse PCSK9, myc-myc-his tagged; assay: SPR, mAb amine-coupled, 25C, pH 5.5
Target sequence in this assay (Q80W65 35-694 limits assumed): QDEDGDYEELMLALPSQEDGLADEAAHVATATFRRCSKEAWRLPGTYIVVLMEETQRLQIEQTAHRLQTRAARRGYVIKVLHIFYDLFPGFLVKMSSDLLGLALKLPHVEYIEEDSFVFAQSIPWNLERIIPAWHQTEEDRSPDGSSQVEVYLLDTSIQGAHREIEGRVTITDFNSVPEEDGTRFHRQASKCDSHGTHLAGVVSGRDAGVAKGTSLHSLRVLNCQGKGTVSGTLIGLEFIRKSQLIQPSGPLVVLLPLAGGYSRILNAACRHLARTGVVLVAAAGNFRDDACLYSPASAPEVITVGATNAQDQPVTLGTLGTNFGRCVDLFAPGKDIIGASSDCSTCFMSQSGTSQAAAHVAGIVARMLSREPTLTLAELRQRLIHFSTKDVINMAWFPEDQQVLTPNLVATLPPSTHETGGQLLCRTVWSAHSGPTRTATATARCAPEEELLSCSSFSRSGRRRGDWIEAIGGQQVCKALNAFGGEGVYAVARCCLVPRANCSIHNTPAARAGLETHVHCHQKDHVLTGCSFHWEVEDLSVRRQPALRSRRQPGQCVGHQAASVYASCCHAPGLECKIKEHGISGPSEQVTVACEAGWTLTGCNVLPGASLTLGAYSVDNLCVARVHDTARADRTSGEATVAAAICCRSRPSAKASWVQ
From the text: (§2) Briefly, mAbs were immobilized onto BIACORE™ CM5 sensor chips via amine coupling.

[10] = target: T8, his-tagged Syrian golden hamster (Mesocricetus auratus) PCSK9 (Syrian golden hamster (Mesocricetus …)); assay: SPR, mAb amine-coupled, 25C, pH 5.5
T8 construct: also called maPCSK9-h; maPCSK9
T8 chain: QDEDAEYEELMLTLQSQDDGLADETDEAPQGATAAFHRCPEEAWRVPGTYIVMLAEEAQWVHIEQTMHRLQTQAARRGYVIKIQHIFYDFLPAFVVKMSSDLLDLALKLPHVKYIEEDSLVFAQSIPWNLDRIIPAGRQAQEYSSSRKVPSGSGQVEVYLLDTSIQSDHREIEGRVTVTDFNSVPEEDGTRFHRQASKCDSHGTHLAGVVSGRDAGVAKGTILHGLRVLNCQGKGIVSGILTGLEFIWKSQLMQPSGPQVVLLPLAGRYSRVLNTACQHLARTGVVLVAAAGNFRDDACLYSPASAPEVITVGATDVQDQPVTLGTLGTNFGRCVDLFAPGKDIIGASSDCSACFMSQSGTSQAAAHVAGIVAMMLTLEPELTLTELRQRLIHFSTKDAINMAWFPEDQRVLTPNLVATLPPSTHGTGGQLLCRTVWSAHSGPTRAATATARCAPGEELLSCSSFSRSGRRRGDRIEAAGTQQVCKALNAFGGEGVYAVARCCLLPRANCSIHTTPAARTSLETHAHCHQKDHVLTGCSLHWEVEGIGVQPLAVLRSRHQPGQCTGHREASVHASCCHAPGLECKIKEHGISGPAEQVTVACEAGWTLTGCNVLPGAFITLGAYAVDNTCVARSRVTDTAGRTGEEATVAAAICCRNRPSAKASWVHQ
From the text: as §2

[11] = target: T7, rat (Rattus norvegicus) PCSK9, …; assay: SPR, mAb amine-coupled, 25C, pH 5.5
From the text: as §2

B1: H1H316P (antibody, V domains shown)
VH: EVQLVESGGGLVQPGGSLRLSCAASGFTFNNYAMNWVRQAPGKGLDWVSTISGSGGTTNYADSVKGRFIISRDSSKHTLYLQMNSLRAEDTAVYYCAKDSNWGNFDLWGRGTLVTVSS
VL: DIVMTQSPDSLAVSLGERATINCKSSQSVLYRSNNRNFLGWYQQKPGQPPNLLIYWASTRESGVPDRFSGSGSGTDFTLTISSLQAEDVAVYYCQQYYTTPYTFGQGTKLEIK
notes: Fully human mAb made in CHO cells; also called mAb316P
**Q.** What does the source list for B1?
**A.** OD (Human PCSK9-myc-myc-his [1]): > 1 od; OD [2]: > 1 od; OD [3]: > 1 od; Kd (Human PCSK9-myc-myc-his [4]): 1.8 nM; T1/2 (Human PCSK9-myc-myc-his [4]): 9 min; Kd (hPCSK9(D374Y)-mmh): 4.2 nM; T1/2 (hPCSK9(D374Y)-mmh): 4 min; Kd [5]: 1.8 nM; T1/2 [5]: 21 min; Kd [6]: 1.8 nM; T1/2 [6]: 11 min; Kd [7]: 4.7 nM; T1/2 [7]: 3 min; Kd [8]: 37.5 nM; T1/2 [8]: 1 min; Kd [9]: 0.063 nM; T1/2 [9]: 11 min; Kd [10]: 0.087 nM; T1/2 [10]: 8 min; Kd [11]: 0.349 nM; T1/2 [11]: 5 min
